Measurements reported in the supplement of paper PMC12783771.
± gives the standard deviation of the averaged measurements.

B1: library; numbered along this chain (parent)
chain: MNIQIGELAKRTACPVVTIRFYEQEGLLPPPGRSRGNFRLYGEEHVERLQFIRHCRSLDMPLSDVRTLLSYRKRPDQDCGEVNMLLDEHIRQVESRIGALLELKHHLVELREACSGARPAQSCGILQGLSDCVCDTRGTTAHPSD

Experiments:
[1] = variants of: B1; test: sfGFP reporter fluorescence (15 h) (µM FITC); higher = higher leak; settings: library round: Round 0; ligand: none
Outline: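 Linear PbrR templates were made by PCR, normalized to 5 nM with an Echo, and expressed in BL21 Star (DE3) PANOx-SP extract with the pPbrR-sfGFP reporter plasmid and 30 μg/mL GamS. Echo-assembled 1 μL reactions held 1 µM lead chloride, 30 µM zinc acetate or no metal and were incubated 15 hr at 30 °C. Endpoint sfGFP fluorescence was read on a Synergy Neo2 and expressed as µM FITC using standard curves. Up to three biological replicates were run.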

[2] = variants of: B1; test: sfGFP reporter fluorescence (15 h) (µM FITC); higher = stronger transcriptional activation; settings: library round: Round 0
Protocol: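 Cell-free (BL21 Star DE3 extract, PANOx-SP) biosensing: 1 µL Echo-assembled reactions with linear PbrR variant templates (5 nM) and pPbrR-sfGFP reporter, with 1 µM Pb (lead chloride), 30 µM Zn (zinc acetate) or no ligand; endpoint sfGFP fluorescence after 15 h at 30 °C, calibrated as µM FITC. Round 0 library (alanine scan, site saturation, combinatorial) of PbrR from Cupriavidus metallidurans; 2 biological replicates.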

Row | Variant | sfGFP reporter fluorescence [1] | sfGFP reporter fluorescence ([2]; ligand: 1 µM Pb) | sfGFP reporter fluorescence ([2]; ligand: 30 µM Zn)
1 | D64I | 0.256 ± 0.028 | 0.837 ± 0.025 | 3.78 ± 0.41
2 | D64K | 0.154 ± 0.049 | 0.382 ± 0.023 | 3.306 ± 0.03
3 | D64S | 0.0944 ± 0.0013 | 0.22 ± 0.013 | 3.02 ± 0.097
4 | D64R | 0.064 ± 0.0039 | 0.112 ± 0.0049 | 1.4 ± 0.036
5 | D64T | 0.217 ± 0.0054 | 0.331 ± 0.051 | 2.74 ± 0.3
6 | D64K L107C | 3.83 ± 0.36 | 3.75 ± 0.15 | 4.11 ± 0.21
7 | M60L P61N D64K K104V G128I | 0.345 ± 0.029 | 0.915 ± 0.075 | 2.39 ± 0.063
8 | D64K G128M | 0.806 ± 0.04 | 1.86 ± 0.25 | 4.98 ± 0.34
9 | D64K G128I | 0.371 ± 0.021 | 1.32 ± 0.067 | 4.45 ± 0.14
10 | M60L P61N D64K G128I | 0.944 ± 0.037 | 3.29 ± 0.078 | 3.77 ± 0.81
11 | M60L P61N D64K G128M | 1.99 ± 0.056 | 3.91 ± 0.25 | 4.405 ± 0.006
12 | M60L P61N L107C | 1.39 ± 0.39 | 2.42 ± 0.21 | 5.07 ± 0.26
13 | M60L K104V L107C | 1.11 ± 0.099 | 3.04 ± 0.88 | 2.76 ± 0.63
14 | P61N K104V L107C | 0.283 ± 0.021 | 1.28 ± 0.11 | 2.54 ± 0.079
15 | M60L P61N K104V G128M | 0.547 ± 0.013 | 1.69 ± 0.41 | 3.84 ± 0.1
16 | M60L P61N K104V G128I | 0.148 ± 0.0083 | 0.448 ± 0.098 | 1.76 ± 0.23
17 | M60L D64K L107C G128M | 5.61 ± 0.24 | 4.82 ± 0.34 | 4.67 ± 0.83
18 | M60L D64K L107C G128I | 5.03 ± 0.22 | 4.57 ± 0.23 | 3.85 ± 0.9
19 | P61N D64K K104V | 0.26 ± 0.0026 | 0.752 ± 0.037 | 2.41 ± 0.1
20 | P61N K104V L107C G128M | 0.584 ± 0.064 | 2.12 ± 0.083 | 3.41 ± 0.56
21 | P61N K104V L107C G128I | 0.289 ± 0.0057 | 1.306 ± 0.0026 | 2.66 ± 0.067
22 | C55L | 0.0608 ± 0.001 | 0.0702 ± 0.0013 | 0.173 ± 0.0091
23 | C55S | 0.06029 ± 0.00026 | 0.066 ± 0.001 | 0.203 ± 0.019

Row | Variant | sfGFP reporter fluorescence [1] | sfGFP reporter fluorescence ([2]; ligand: 1 µM Pb) | sfGFP reporter fluorescence ([2]; ligand: 30 µM Zn)
24 | C55W | 0.0731 ± 0.0029 | 0.0935 ± 0.0015 | 0.136 ± 0.0083
25 | C55Y | 0.0601 ± 0.0021 | 0.0623 ± 0.001 | 0.06011 ± 0.00052
26 | C55V | 0.0629 ± 0.0029 | 0.0773 ± 0.0047 | 0.273 ± 0.0029
27 | C55T | 0.0577 ± 0.00078 | 0.0594 ± 0.0042 | 0.129 ± 0.0018
28 | C55M | 0.0645 ± 0.0015 | 0.0733 ± 0.0026 | 0.139 ± 0.018
29 | C55Q | 0.0594 ± 0.001 | 0.0588 ± 0.0013 | 0.0585 ± 0.00078
30 | C55N | 0.0594 ± 0.0015 | 0.0583 ± 0.0015 | 0.057 ± 0.0034
31 | C55P | 0.0596 ± 0.00078 | 0.0597 | 0.05846 ± 0.00026
32 | C55R | 0.0596 ± 0.0018 | 0.0592 ± 0.0013 | 0.0572
33 | P61N G128I | 0.1886 ± 0.0018 | 0.682 ± 0.092 | 3.06 ± 0.22
34 | P61N G128M | 0.481 ± 0.039 | 1.59 ± 0.34 | 4.72 ± 0.4
35 | M60L K104V G128I | 0.312 ± 0.017 | 1.27 ± 0.04 | 3.28 ± 0.16
36 | M60L K104V G128M | 0.69 ± 0.028 | 1.46 ± 0.085 | 2.91 ± 0.039
37 | P61N D64K L107C | 2.69 ± 0.12 | 3.57 ± 0.046 | 3.69 ± 0.12
38 | M60L G128M | 0.939 ± 0.012 | 2.69 ± 0.78 | 4.69 ± 0.071
39 | M60L G128I | 0.336 ± 0.012 | 1.4 ± 0.016 | 3.625 ± 0.027
40 | P61A | 0.0665 ± 0.00078 | 0.108 | 1.22 ± 0.092
41 | P61K | 0.068 ± 0.00078 | 0.107 ± 0.0031 | 1.6 ± 0.1
42 | P61S | 0.0755 ± 0.00052 | 0.146 ± 0.0036 | 2.15 ± 0.052
43 | P61D | 0.0729 | 0.123 ± 0.0044 | 0.709 ± 0.02
44 | P61E | 0.0693 | 0.0991 ± 0.0049 | 0.338 ± 0.042
45 | P61Y | 0.0638 ± 0.0015 | 0.0757 ± 0.0018 | 0.148 ± 0.0023
46 | P61V | 0.0651 ± 0.0013 | 0.09 ± 0.0029 | 0.302

Row | Variant | sfGFP reporter fluorescence [1] | sfGFP reporter fluorescence ([2]; ligand: 1 µM Pb) | sfGFP reporter fluorescence ([2]; ligand: 30 µM Zn)
47 | P61C | 0.0755 ± 0.001 | 0.193 ± 0.0083 | 1.78 ± 0.031
48 | P61R | 0.0715 ± 0.0031 | 0.1231 ± 0.00052 | 1.42 ± 0.021
49 | P61I | 0.0553 ± 0.0067 | 0.06414 ± 0.00052 | 0.112 ± 0.00026
50 | P61L | 0.0638 ± 0.0026 | 0.0823 ± 0.0039 | 0.191 ± 0.0057
51 | P61W | 0.061 ± 0.0039 | 0.06395 ± 0.00026 | 0.104 ± 0.0018
52 | P61N | 0.07825 ± 0.00026 | 0.13 ± 0.078 | 1.74 ± 0.049
53 | P61M | 0.0682 ± 0.001 | 0.1424 ± 0.0013 | 0.714 ± 0.039
54 | P61H | 0.0658 ± 0.00078 | 0.117 ± 0.0021 | 0.797 ± 0.015
55 | P61T | 0.0865 ± 0.001 | 0.211 ± 0.006 | 1.94 ± 0.03
56 | P61G | 0.0819 ± 0.0029 | 0.2936 ± 0.0021 | 2.2 ± 0.053
57 | P61F | 0.0608 ± 0.0031 | 0.0651 ± 0.0023 | 0.09382 ± 0.00052
58 | P61Q | 0.0755 ± 0.0015 | 0.148 ± 0.0065 | 1.07 ± 0.024
59 | D64K K104V L107C G128I | 2.19 ± 0.12 | 4.16 ± 0.23 | 3.35 ± 0.64
60 | D64K K104V L107C G128M | 3.13 ± 0.25 | 3.98 ± 0.082 | 3.57 ± 0.84
61 | L62N | 0.061 ± 0.00078 | 0.0632 ± 0.00078 | 0.08008 ± 0.00026
62 | L62S | 0.0619 ± 0.0015 | 0.063 ± 0.001 | 0.0744 ± 0.001
63 | L62A | 0.06469 ± 0.00026 | 0.0634 ± 0.0031 | 0.0839 ± 0.0062
64 | L62C | 0.061 ± 0.0018 | 0.0651 ± 0.0013 | 0.0995 ± 0.00078
65 | L62M | 0.066 ± 0.001 | 0.0962 ± 0.0049 | 0.533 ± 0.033
66 | L62W | 0.0616 ± 0.0042 | 0.0603 ± 0.0034 | 0.0665 ± 0.0013
67 | L62T | 0.0607 ± 0.0034 | 0.0674 ± 0.0031 | 0.133 ± 0.0031
68 | L62Q | 0.0597 ± 0.001 | 0.0608 ± 0.001 | 0.0819 ± 0.0018
69 | L62F | 0.0599 ± 0.0023 | 0.0652 ± 0.0015 | 0.168 ± 0.0039

Row | Variant | sfGFP reporter fluorescence [1] | sfGFP reporter fluorescence ([2]; ligand: 1 µM Pb) | sfGFP reporter fluorescence ([2]; ligand: 30 µM Zn)
70 | L62E | 0.06066 ± 0.00026 | 0.0625 ± 0.0023 | 0.0658 ± 0.0013
71 | L62P | 0.06194 ± 0.00052 | 0.06487 ± 0.00052 | 0.0993 ± 0.0042
72 | L62I | 0.05992 ± 0.00026 | 0.0883 ± 0.0062 | 0.88 ± 0.14
73 | L62R | 0.06377 ± 0.00052 | 0.0643 ± 0.0013 | 0.0704 ± 0.0047
74 | L62G | 0.0586 ± 0.001 | 0.0579 ± 0.0015 | 0.0614 ± 0.00078
75 | L62Y | 0.0599 ± 0.0023 | 0.0623 ± 0.00052 | 0.0748 ± 0.0057
76 | L62D | 0.06066 ± 0.00026 | 0.0629 ± 0.0018 | 0.0649 ± 0.001
77 | L62V | 0.0621 ± 0.0018 | 0.08008 ± 0.00078 | 0.396 ± 0.0088
78 | L62H | 0.06285 ± 0.00026 | 0.0638 ± 0.001 | 0.0918 ± 0.0049
79 | L62K | 0.0632 ± 0.0013 | 0.0619 ± 0.001 | 0.0815 ± 0.0018
80 | M60L D64K K104V L107C | 3.73 ± 0.15 | 4.15 ± 0.39 | 3.44 ± 0.57
81 | P61N D64K K104V G128M | 0.739 ± 0.021 | 1.592 ± 0.0036 | 3.375 ± 0.019
82 | P61N D64K K104V G128I | 0.32 ± 0.048 | 0.989 ± 0.27 | 2.48 ± 0.29
83 | D64K K104V | 0.4361 ± 0.0031 | 1.44 ± 0.053 | 4.041 ± 0.031
84 | D59A | 0.0693 ± 0.0036 | 0.0755 ± 0.001 | 0.291 ± 0.014
85 | P61N D64K L107C G128M | 4.78 ± 0.1 | 5.3 ± 0.14 | 4.84 ± 0.18
86 | P61N D64K L107C G128I | 3.28 ± 0.15 | 4.88 ± 0.7 | 4.54 ± 0.044
87 | M60L L107C G128I | 2.19 ± 0.17 | 3.42 ± 0.14 | 2.98 ± 0.17
88 | M60L L107C G128M | 4.479 ± 0.028 | 4.98 ± 0.62 | 5.22 ± 0.29
89 | M60L P61N | 0.25 ± 0.0062 | 1.01 ± 0.48 | 3.5 ± 0.044
